This note sets out measurements from US20040171019A1, “PIN1 peptidyl-prolyl isomerase polypeptides, their crystal structures, and use thereof for drug design” (Agouron Pharmaceuticals, Inc., priority 2002, published 2004).

In this test the target is 6His-PPIase domain of PIN1 (human) (UniProt Q13526). As to the kind of experiment: fluorescence polarization competition; free Pintide displaces fluorescein-tagged Pintide from the 6His-PPIase domain of PIN1.

As to “Pintide (WFYpSPFLE) without the fluorescein tag (peptide)”, the concentration for half-maximal inhibition (IC50) was 7 to 10 µM.
